Data reported in patent US20250084453.

How the values were obtained:
[1] = target: BRD2, endogenous in HEK293T cells (UniProt P25440)
[2] = target: BRD3, endogenous in HEK293T cells (UniProt Q15059)
[3] = target: BRD4, endogenous in HEK293T cells (UniProt O60885)
[4] = target: GLUL (glutamine synthetase), endogenous in HEK293T cells (UniProt P15104)
[5] = target: V5-tagged IKZF1 protein (UniProt Q13422)
[6] = target: VCL (vinculin), endogenous in HEK293T cells (UniProt P18206)
[7] = target: translation termination factor GSPT1, endogenous in HEK293T cells (UniProt P15170)
Chain of translation termination factor GSPT1, endogenous in HEK293T cells (P15170 whole entry): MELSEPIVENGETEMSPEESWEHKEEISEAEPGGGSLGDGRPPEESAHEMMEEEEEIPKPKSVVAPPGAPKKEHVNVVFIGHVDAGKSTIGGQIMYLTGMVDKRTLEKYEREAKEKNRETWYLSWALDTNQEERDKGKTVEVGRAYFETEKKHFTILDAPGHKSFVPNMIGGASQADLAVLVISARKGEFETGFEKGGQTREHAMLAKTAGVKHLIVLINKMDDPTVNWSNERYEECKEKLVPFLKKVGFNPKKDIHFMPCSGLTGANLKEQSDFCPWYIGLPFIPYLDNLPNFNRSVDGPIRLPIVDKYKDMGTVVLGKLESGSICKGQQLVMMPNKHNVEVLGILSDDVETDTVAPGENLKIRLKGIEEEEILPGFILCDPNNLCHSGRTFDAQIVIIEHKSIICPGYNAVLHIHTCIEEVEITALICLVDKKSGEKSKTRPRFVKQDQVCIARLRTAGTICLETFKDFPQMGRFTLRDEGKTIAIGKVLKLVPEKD

[8] = target: translation termination factor GSPT2, endogenous in HEK293T cells (UniProt Q8IYD1)
Chain of translation termination factor GSPT2, endogenous in HEK293T cells (Q8IYD1 whole entry): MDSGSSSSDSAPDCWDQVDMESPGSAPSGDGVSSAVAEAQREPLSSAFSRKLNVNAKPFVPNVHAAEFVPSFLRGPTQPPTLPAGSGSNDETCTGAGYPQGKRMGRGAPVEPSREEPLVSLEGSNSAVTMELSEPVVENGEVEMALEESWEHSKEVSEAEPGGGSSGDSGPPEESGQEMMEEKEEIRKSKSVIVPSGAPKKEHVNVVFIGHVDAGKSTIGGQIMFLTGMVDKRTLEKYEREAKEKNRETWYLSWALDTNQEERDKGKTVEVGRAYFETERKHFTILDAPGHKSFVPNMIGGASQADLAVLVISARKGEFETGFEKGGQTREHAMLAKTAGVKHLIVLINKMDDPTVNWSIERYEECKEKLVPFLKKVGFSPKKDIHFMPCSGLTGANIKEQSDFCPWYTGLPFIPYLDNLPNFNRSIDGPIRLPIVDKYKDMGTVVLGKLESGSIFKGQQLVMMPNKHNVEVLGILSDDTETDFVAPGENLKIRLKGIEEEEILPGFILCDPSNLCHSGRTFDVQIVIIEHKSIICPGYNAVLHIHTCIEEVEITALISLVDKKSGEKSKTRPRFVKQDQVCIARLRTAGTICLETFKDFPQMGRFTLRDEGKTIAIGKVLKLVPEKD

[9] = target: T1, RBM39 (RNA-Binding Motif Protein 39)/CAPERα, endogenous in HEK293T cells (UniProt Q14498)
T1 sequence: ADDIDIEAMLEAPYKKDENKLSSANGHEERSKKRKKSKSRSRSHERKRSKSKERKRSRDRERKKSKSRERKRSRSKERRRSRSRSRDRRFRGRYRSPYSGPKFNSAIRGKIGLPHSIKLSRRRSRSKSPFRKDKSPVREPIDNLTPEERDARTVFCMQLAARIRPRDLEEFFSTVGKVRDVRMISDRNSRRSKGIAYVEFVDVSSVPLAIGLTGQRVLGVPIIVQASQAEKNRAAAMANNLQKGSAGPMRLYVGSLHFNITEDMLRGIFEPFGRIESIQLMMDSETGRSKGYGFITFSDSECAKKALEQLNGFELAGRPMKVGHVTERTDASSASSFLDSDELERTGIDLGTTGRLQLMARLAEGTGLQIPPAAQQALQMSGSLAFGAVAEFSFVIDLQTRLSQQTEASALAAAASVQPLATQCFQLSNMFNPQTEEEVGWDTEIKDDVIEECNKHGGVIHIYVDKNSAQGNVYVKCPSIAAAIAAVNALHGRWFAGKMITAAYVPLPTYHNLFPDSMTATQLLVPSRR

[10] = target: HIF1A, endogenous in HEK293T or A375 cells (UniProt Q16665)

Chain of V5-tagged IKZF1 protein (Q13422 whole entry, looked up): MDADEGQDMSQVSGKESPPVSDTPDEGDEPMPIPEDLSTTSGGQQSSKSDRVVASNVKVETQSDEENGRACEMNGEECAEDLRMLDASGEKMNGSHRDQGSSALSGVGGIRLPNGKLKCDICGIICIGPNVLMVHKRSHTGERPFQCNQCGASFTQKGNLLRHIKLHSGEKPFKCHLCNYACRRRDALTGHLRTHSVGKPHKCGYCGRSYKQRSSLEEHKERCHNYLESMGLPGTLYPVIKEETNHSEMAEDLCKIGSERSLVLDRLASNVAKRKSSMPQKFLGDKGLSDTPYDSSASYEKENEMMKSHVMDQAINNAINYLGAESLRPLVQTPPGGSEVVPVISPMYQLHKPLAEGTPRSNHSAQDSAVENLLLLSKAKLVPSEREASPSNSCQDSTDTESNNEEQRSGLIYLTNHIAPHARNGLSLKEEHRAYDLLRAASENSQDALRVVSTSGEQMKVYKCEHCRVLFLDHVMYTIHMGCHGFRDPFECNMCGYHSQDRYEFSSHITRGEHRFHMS
Chain of VCL (vinculin), endogenous in HEK293T cells (P18206 other isoform, or with tags, fused parts or gaps): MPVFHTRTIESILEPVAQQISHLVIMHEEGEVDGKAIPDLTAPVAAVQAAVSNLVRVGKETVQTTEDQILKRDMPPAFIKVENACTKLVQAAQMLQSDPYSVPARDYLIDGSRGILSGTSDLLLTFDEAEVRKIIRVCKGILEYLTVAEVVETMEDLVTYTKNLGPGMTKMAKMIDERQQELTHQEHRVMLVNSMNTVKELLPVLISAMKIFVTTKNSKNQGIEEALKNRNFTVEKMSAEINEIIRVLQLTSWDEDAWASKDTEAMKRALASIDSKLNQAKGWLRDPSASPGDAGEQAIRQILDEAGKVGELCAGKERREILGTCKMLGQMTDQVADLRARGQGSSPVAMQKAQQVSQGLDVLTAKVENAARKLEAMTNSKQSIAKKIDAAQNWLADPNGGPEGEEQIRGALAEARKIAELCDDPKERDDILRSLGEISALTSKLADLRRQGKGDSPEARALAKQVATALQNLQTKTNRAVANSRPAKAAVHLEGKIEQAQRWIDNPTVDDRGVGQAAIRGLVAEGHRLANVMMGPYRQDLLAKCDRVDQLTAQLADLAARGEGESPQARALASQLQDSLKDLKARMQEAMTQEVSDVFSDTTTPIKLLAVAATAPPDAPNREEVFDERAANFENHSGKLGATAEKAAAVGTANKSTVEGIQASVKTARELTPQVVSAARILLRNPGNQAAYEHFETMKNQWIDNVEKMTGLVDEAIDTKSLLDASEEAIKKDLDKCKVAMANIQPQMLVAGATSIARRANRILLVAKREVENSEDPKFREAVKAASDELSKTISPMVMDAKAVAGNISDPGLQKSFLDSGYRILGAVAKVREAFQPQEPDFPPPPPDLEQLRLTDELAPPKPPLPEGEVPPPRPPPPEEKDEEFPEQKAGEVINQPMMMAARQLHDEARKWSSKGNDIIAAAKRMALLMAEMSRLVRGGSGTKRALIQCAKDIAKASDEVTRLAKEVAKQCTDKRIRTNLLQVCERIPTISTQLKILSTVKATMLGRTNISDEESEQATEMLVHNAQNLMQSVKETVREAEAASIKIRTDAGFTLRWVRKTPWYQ
Chain of BRD2, endogenous in HEK293T cells (P25440 whole entry, looked up): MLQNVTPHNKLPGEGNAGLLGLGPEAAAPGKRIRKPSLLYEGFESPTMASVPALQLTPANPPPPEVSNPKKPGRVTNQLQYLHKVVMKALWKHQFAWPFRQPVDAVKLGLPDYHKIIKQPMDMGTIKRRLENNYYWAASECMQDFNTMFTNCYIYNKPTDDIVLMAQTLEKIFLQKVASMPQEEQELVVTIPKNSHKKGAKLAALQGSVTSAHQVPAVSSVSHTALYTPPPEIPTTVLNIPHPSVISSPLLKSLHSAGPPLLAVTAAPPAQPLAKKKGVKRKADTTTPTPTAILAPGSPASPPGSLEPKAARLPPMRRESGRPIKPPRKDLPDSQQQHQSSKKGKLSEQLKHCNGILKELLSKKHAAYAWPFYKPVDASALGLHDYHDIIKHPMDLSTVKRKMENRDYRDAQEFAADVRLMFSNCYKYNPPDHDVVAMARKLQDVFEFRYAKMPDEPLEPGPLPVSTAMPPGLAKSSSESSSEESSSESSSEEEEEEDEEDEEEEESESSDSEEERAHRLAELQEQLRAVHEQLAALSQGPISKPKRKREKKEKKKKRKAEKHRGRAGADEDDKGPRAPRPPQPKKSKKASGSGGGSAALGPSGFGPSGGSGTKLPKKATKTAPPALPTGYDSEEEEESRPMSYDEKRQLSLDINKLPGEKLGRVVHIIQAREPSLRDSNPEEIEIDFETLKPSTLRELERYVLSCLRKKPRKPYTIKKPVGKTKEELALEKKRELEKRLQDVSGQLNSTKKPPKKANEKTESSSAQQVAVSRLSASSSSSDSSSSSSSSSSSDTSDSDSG
Chain of BRD3, endogenous in HEK293T cells (Q15059 2-726): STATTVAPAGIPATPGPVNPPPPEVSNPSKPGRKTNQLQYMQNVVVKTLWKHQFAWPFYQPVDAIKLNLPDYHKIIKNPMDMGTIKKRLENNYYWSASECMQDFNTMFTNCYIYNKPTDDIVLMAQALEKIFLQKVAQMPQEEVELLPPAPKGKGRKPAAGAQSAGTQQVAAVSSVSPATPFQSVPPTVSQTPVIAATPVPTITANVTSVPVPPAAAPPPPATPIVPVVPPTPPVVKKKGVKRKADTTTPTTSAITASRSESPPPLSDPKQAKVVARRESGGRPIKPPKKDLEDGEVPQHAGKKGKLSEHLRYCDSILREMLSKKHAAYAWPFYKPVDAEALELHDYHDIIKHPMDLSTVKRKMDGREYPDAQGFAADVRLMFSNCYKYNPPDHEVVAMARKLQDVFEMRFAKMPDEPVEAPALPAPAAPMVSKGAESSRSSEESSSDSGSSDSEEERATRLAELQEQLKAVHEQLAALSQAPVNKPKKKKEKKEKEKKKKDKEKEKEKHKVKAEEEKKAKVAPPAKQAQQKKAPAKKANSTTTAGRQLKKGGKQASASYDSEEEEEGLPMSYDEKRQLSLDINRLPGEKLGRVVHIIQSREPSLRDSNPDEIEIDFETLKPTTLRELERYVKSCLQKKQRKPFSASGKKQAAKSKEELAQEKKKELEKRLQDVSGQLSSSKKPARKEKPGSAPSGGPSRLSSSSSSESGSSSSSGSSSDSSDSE
Chain of GLUL (glutamine synthetase), endogenous in HEK293T cells (P15104 2-373): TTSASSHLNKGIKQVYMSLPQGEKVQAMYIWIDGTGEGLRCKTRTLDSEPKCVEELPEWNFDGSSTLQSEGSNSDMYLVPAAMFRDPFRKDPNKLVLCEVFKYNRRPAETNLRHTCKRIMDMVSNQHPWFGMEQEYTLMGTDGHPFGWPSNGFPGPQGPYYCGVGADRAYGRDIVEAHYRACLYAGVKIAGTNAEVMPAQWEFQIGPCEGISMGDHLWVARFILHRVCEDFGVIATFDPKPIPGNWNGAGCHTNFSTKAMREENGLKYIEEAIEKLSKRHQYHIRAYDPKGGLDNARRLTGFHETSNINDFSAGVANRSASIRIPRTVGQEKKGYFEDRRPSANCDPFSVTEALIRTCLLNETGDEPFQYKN

## CRBN E3 ligase fused at its carboxy terminus to E. coli wild-type BirA biotin ligase (CRBN-BirA)
[1]
  differential enrichment in streptavidin pulldown (MS, triplicates, A3-HA-Ub), PROTAC dBET6 (1 µM) against DMSO: CRBN-BirA; ubiquitinated substrates BRD2, BRD3, BRD4 observed in the upper right portion of the top left volcano plot
[2]
  differential enrichment in streptavidin pulldown (MS, triplicates, A3-HA-Ub), PROTAC dBET6 (1 µM) against DMSO: CRBN-BirA; ubiquitinated substrates BRD2, BRD3, BRD4 observed in the upper right portion of the top left volcano plot
[3]
  differential enrichment in streptavidin pulldown (MS, triplicates, A3-HA-Ub), PROTAC dBET6 (1 µM) against DMSO: CRBN-BirA; ubiquitinated substrates BRD2, BRD3, BRD4 observed in the upper right portion of the top left volcano plot
[4]
  proteins differentially biotinylated, VHL-BirA against CRBN-BirA (MS, triplicates, A3-tagged ubiquitin, HEK293T): Other identified proteins included GLUL, which is a reported a CRBN substrate
[5]
  biotinylated, ubiquitinated V5-IKZF1 in streptavidin bead eluates (Western blot), Avi-Ub or A3-Ub, with pomalidomide (1 µM): both substrate peptide-tagged ubiquitin variants showed pomalidomide-induced ubiquitination of IKZF1 by E3 ligase CRBN
  biotinylated, ubiquitinated V5-IKZF1 in streptavidin pulldown (Western blot, Avi-HA-Ub), with pomalidomide (1 µM): in conditions where pomalidomide was present, an increased amount of mono- and poly-ubiquitinated V5-IKZF1 was captured by the streptavidin beads
  sensitivity in detecting pomalidomide-induced ubiquitination of V5-IKZF1 (Western blot quantification), A3-tagged ubiquitin: 17.76 to 5.58 when comparing A3 to Avi
  sensitivity in detecting pomalidomide-induced ubiquitination of V5-IKZF1 (Western blot quantification), Avi-tagged ubiquitin: 17.76 to 5.58 when comparing A3 to Avi
  ubiquitinated V5-IKZF1 captured by streptavidin beads (Western blot quantification, Avi-HA-Ub), pomalidomide against DMSO: approximately 3.9-fold more ubiquitinated V5-IKZF1 substrate was captured by the streptavidin beads
[6]
  biotinylation in streptavidin pulldown (MS, A3-HA-Ub, CC-885 1 µM), WT CRBN-BirA against loss-of-function mutants: substrates GSPT1, GSPT2, VCL and CSNK1A1 were identified
[7]
  # of PSMs in streptavidin pulldown (MS), A3-Ub, CC-885: 30 PSMs
  # of PSMs in streptavidin pulldown (MS), A3-Ub, DMSO: 0 PSMs
  # of PSMs in streptavidin pulldown (MS), Avi-Ub, CC-885: 25 PSMs
  # of PSMs in streptavidin pulldown (MS), Avi-Ub, DMSO: 0 PSMs
  biotinylated, ubiquitinated endogenous GSPT1 in streptavidin pulldown (Western blot, Avi-HA-Ub), with CC-885 (1 µM): mono- and poly-ubiquitinated GSPT1 captured by the streptavidin beads were only observed in conditions where CC-885 was present
  biotinylation in streptavidin pulldown (MS, A3-HA-Ub, CC-885 1 µM), WT CRBN-BirA against loss-of-function mutants: substrates GSPT1, GSPT2, VCL and CSNK1A1 were identified
  differential enrichment in streptavidin pulldown (MS, triplicates, A3-Ub), CC-885 against DMSO: GSPT1 and GSPT2 are observed to be the most upregulated proteins, both by amount and by statistical significance
  sensitivity in detecting CC-885-induced ubiquitination of GSPT1 by CRBN (Western blot quantification), A3-tag: when comparing A3-tag to Avi-tag (36.39 to 15.46, respectively)
  sensitivity in detecting CC-885-induced ubiquitination of GSPT1 by CRBN (Western blot quantification), Avi-tag: when comparing A3-tag to Avi-tag (36.39 to 15.46, respectively)
  ubiquitinated GSPT1 captured by streptavidin beads (Western blot quantification, Avi-HA-Ub), CC-885 against DMSO: 6-12 fold more ubiquitinated GSPT1 was captured by the streptavidin beads
[8]
  # of PSMs in streptavidin pulldown (MS), A3-Ub, CC-885: 20 PSMs
  # of PSMs in streptavidin pulldown (MS), A3-Ub, DMSO: 0 PSMs
  # of PSMs in streptavidin pulldown (MS), Avi-Ub, CC-885: 13 PSMs
  # of PSMs in streptavidin pulldown (MS), Avi-Ub, DMSO: 0 PSMs
  biotinylation in streptavidin pulldown (MS, A3-HA-Ub, CC-885 1 µM), WT CRBN-BirA against loss-of-function mutants: substrates GSPT1, GSPT2, VCL and CSNK1A1 were identified
  differential enrichment in streptavidin pulldown (MS, triplicates, A3-Ub), CC-885 against DMSO: GSPT1 and GSPT2 are observed to be the most upregulated proteins, both by amount and by statistical significance

## CRBN-BirA mutant D249Y
[6]
  biotinylation in streptavidin pulldown (MS, A3-HA-Ub, CC-885 1 µM), D249Y mutant against WT CRBN-BirA: a decrease in biotinylation by the loss-of-function CRBN-BirA mutants
[7]
  biotinylation in streptavidin pulldown (MS, A3-HA-Ub, CC-885 1 µM), D249Y mutant against WT CRBN-BirA: a decrease in biotinylation by the loss-of-function CRBN-BirA mutants
[8]
  biotinylation in streptavidin pulldown (MS, A3-HA-Ub, CC-885 1 µM), D249Y mutant against WT CRBN-BirA: a decrease in biotinylation by the loss-of-function CRBN-BirA mutants

## CRBN-BirA mutant W386A
[6]
  biotinylation in streptavidin pulldown (MS, A3-HA-Ub, CC-885 1 µM), W386A mutant against WT CRBN-BirA: a decrease in biotinylation by the loss-of-function CRBN-BirA mutants
[7]
  biotinylation in streptavidin pulldown (MS, A3-HA-Ub, CC-885 1 µM), W386A mutant against WT CRBN-BirA: a decrease in biotinylation by the loss-of-function CRBN-BirA mutants
[8]
  biotinylation in streptavidin pulldown (MS, A3-HA-Ub, CC-885 1 µM), W386A mutant against WT CRBN-BirA: a decrease in biotinylation by the loss-of-function CRBN-BirA mutants

## DCAF15 fused to BirA biotin ligase (DCAF15-BirA)
[9]
  differential enrichment in streptavidin pulldown (MS, triplicates, A3-HA-Ub), E7820 (10 µM) against DMSO: the induced ubiquitinated substrate RBM39/CAPERα was produced as a result of the use of the E7820 molecular glue in conjunction with DCAF15-BirA and associated CRL4 E3 ligase

## VHL E3 ligase fused to E. coli wild-type BirA biotin ligase (VHL-BirA)
[1]
  differential enrichment in streptavidin pulldown (MS, triplicates, A3-HA-Ub), PROTAC ARV-771 (1 µM) against DMSO: VHL-BirA; ubiquitinated substrates BRD2, BRD3, BRD4 observed in the upper right portion of the top right volcano plot
[2]
  differential enrichment in streptavidin pulldown (MS, triplicates, A3-HA-Ub), PROTAC ARV-771 (1 µM) against DMSO: VHL-BirA; ubiquitinated substrates BRD2, BRD3, BRD4 observed in the upper right portion of the top right volcano plot
[3]
  differential enrichment in streptavidin pulldown (MS, triplicates, A3-HA-Ub), PROTAC ARV-771 (1 µM) against DMSO: VHL-BirA; ubiquitinated substrates BRD2, BRD3, BRD4 observed in the upper right portion of the top right volcano plot
[10]
  proteins differentially biotinylated by VHL-BirA against CRBN-BirA (MS, triplicates, A3-tagged ubiquitin, HEK293T): One of the best known VHL substrates, HIF1A was among the hits of differentially biotinylated proteins by VHL-BirA
